5 substances from patent publication US20050026834A1 can be followed below.

The target of the assay is T1, rabbit GH receptor (rabbit) (UniProt P19941).
T1 sequence (looked up): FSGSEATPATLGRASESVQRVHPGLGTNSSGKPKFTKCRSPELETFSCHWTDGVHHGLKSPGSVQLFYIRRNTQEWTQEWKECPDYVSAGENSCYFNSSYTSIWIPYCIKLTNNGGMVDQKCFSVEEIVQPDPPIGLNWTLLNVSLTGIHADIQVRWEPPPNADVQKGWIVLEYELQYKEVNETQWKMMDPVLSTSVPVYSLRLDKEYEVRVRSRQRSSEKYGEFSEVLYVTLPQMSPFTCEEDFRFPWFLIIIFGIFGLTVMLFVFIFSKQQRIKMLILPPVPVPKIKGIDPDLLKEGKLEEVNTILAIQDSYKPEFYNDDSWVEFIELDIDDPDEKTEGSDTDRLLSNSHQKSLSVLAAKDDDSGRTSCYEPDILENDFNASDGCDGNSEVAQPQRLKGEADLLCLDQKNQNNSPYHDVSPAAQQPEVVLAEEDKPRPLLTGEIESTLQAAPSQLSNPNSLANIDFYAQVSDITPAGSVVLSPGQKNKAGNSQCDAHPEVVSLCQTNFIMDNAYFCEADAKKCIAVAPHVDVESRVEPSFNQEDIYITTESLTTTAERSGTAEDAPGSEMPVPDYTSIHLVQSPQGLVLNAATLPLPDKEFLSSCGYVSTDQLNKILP
Description: cell-based or functional assay.

Where “and” joins values, the source holds several entries; their conditions need not be identical. Equal values may be shown once.

On to “PEG-S144C hGH (mono-PEGylated S144C) (from UniProt P01241 27-217) (ligand)”, for which the EC50 of single experiments, cell proliferation assay (Example 1) is 40 ng/mL and 45 ng/mL.

“hGH cysteine mutein S144C (from UniProt P01241 27-217) (ligand)”: the Mean EC50 (ng/ml), proliferation of GH-R4 cells (MTS) amounted to 1.6 ng/mL.

“hGH cysteine mutein T3C, disulfide-linked homodimer (from UniProt P01241 27-217) (ligand)” came in with a Mean EC50 (ng/ml), proliferation of GH-R4 cells (MTS) of 1.4 ng/mL.

For “hGH cysteine mutein T148C (from UniProt P01241 27-217) (ligand)”, the Mean EC50 (ng/ml), proliferation of GH-R4 cells (MTS); T148C-lotA was 0.5 ng/mL and the Mean EC50 (ng/ml), proliferation of GH-R4 cells (MTS); T148C-lotB was 2.5 ng/mL.

With “wild-type rhGH (secreted from E. coli with the stII signal sequence) (from UniProt P01241 27-217) (ligand)”, the Mean EC50 (ng/ml), proliferation of GH-R4 cells (MTS) amounted to 0.8 ng/mL.
